Measured values as given in the supplement of paper PMC9170038.

Test system: MS2 coat protein
Assay: apparent KD of MS2 coat protein; designed switch direction (-1 OFF switch, 1 ON switch): -1; higher = weaker reporter binding
Procedure, shortened: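 Transcription of designed RNA switches on Illumina chips was done by stalled E. coli RNA polymerase. SNAP-549-labelled MS2 coat protein was then titrated in doubling steps from 0.7 or 1.5 nM to 3 µM, with steps of 0.8–1.5 h at the lowest and 10–20 min at the highest concentration. The per-design median over clusters of curve-fitted normalised fluorescence is reported as apparent KD.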

[1] = Eterna round: R95, input ligand: microRNA oligo, concentration not stated
[2] = input ligand: microRNA oligo, concentration not stated

Sequence: GUAGAGUAAGGAUAUUGUGAAUAGGAUAGAAUGGUUAGAAACAAGAAGGUACAUGAGGAUCACCCAUGUAAUGU [Excluse me!!!! 20 - Jieux - Exclusion 4] (puzzle: Exclusion 4)
- apparent KD of MS2 coat protein [1]: 0.0213 µM

Sequence: UUAUUAUAUGUAGGAUAUGCAUAUUGUUGUUAUGCAGAAGGACAUGAGGAUCACCCAUGUAUAUUAUUGUUGUAUAUUAUAUAU [Title] (Eterna round: R96, puzzle: Exclusion NG 1)
- apparent KD of MS2 coat protein (input ligand: FMN 200 uM): 0.0374 µM
- apparent KD of MS2 coat protein [2]: 0.0175 µM
- apparent KD of MS2 coat protein (input ligand: none): 0.0241 µM

Sequence: UGAGUGCUGCGAGGAUAUACAUGAGGAUCACCCAUGUGGUCCUGUGAGGCUUUGCCUCACAGGAUGUAGAAGGCGCAGUACUCU [JL ENG2 1.18] (Eterna round: R96, puzzle: Exclusion NG 2)
- apparent KD of MS2 coat protein (input ligand: FMN 200 uM): 0.0829 µM
- apparent KD of MS2 coat protein [2]: 0.0138 µM
- apparent KD of MS2 coat protein (input ligand: none): 0.0174 µM

Sequence: CAACUGUCAGGAUAUCGUGCAUACAACGAAAGUUCUAUGUGCGAGAAGGGACAUGAGGAUCACCCAUGUAAACG [Omei Ex4 A27] (Eterna round: R97, puzzle: Exclusion 4)
- apparent KD of MS2 coat protein (input ligand: FMN 200 uM): 0.199 µM
- apparent KD of MS2 coat protein (input ligand: none): 0.0609 µM

Sequence: UCAUAGUGAGGAUAUCGGUCCCUGACAAAUAGUUGGGUUAUUGAGAAGGCACAUGAGGAUCACCCAUGUGUCCG [EX4 C.5] (Eterna round: R97, puzzle: Exclusion 4)
- apparent KD of MS2 coat protein (input ligand: FMN 200 uM): 0.0197 µM
- apparent KD of MS2 coat protein (input ligand: none): 0.0135 µM

Sequence: CUAGCGAAUGUAGGAUAUCGGACUGUUUCAGUCUGAGAAGGACAUGAGGAUCACCCAUGUAUUGCUACGUGAGUAGCUCGCUAG [JL ENG1 3.92] (Eterna round: R96, puzzle: Exclusion NG 1)
- apparent KD of MS2 coat protein (input ligand: FMN 200 uM): 0.0324 µM
- apparent KD of MS2 coat protein [2]: 0.0137 µM
- apparent KD of MS2 coat protein (input ligand: none): 0.018 µM

Sequence: CCUCGACAUGAGGAUCACCCAUGUGAGGAUAUCAUAUUCAGACGAAAGGUGUUAGAGUUGAGAAGGCGCAUGUU [Eternabot (L1) Solution 51] (Eterna round: R97, puzzle: Exclusion 1)
- apparent KD of MS2 coat protein (input ligand: FMN 200 uM): 0.0441 µM
- apparent KD of MS2 coat protein (input ligand: none): 0.0283 µM

Sequence: GUAUCGUGAGGAUAUCAUGAUUGACUUUUGUUUUGUCAGCGUGAGAAGGCACAUGAGGAUCACCCAUGUGAUUA [Ex4 - 3 - 9] (puzzle: Exclusion 4)
- apparent KD of MS2 coat protein [1]: 0.0223 µM

Sequence: AAAUAGCGAGGAUAUACUGGAAUAGAAAAUAUUCGCAUGGCACAUGAGGAUCACCCAUGUAGAAGGCGCAGUAA (Eterna round: R97, puzzle: Exclusion 2)
- apparent KD of MS2 coat protein (input ligand: FMN 200 uM): 0.0855 µM
- apparent KD of MS2 coat protein (input ligand: none): 0.0255 µM

Sequence: CCUCAGUAAGGAUAUCAGCUUAGGAGGUUGGUAAUGAGAGCUGAGAAGGUACAUGAGGAUCACCCAUGUUAGUU [JL Zatite mod 7] (puzzle: Exclusion 4)
- apparent KD of MS2 coat protein [1]: 0.0302 µM

Sequence: GUAGAGUCAGGAUAUACAAGAUCGAUAGAUCGGCGGUCCAUACAUGAGGAUCACCCAUGUAGAAGGGACUCUAC [Mat - Exclusion 2 - Eli Mod - D5] (Eterna round: R97, puzzle: Exclusion 2)
- apparent KD of MS2 coat protein (input ligand: FMN 200 uM): 0.514 µM
- apparent KD of MS2 coat protein (input ligand: none): 0.0272 µM

Sequence: UUGGAGAUAGGAUAUACGAGGAGAGUUGAGGGAAGGUGAUGACAUGAGGAUCACCCAUGUAGAAGGAUCAGGAG [JR_Exclu2_Sub069] (Eterna round: R96, puzzle: Exclusion 2)
- apparent KD of MS2 coat protein (input ligand: FMN 200 uM): 0.169 µM
- apparent KD of MS2 coat protein [2]: 0.0988 µM
- apparent KD of MS2 coat protein (input ligand: none): 0.172 µM

Sequence: AUGGAGGUAGUCAGGAUAUCGGGCGCUCGGGCGUACGAGAAGGGACAUGAGGAUCACCCAUGUCGCUCAUUCCA [BmEX4 C.2] (Eterna round: R97, puzzle: Brourd's mod of Exclusion 4)
- apparent KD of MS2 coat protein (input ligand: FMN 200 uM): 0.0246 µM
- apparent KD of MS2 coat protein (input ligand: none): 0.0234 µM

Sequence: UUUUUGUCAGGAUAUGACUAGAUGCACGUUAGUGUAUUUACUUAGAAGGGACAUGAGGAUCACCCAUGUAUUCC [Bring Us a Shrubbery-13] (puzzle: Exclusion 4)
- apparent KD of MS2 coat protein [1]: 0.0262 µM

Sequence: CAGCAGAGAGGAUAUACUUGAGGAUCACCCAAGUGACACCGCCUGGUGCGAACUUGAAGUAGAAGGUUCGGCUA [Entema] (Eterna round: R97, puzzle: Exclusion 3)
- apparent KD of MS2 coat protein (input ligand: FMN 200 uM): 0.0247 µM
- apparent KD of MS2 coat protein (input ligand: none): 0.0197 µM

Sequence: UGCCAAGCAGGAUAUGCCCGGAAUAACAUGAGGAUCACCCAUGUGACCGAUUGAUGUUCUGCAGAAGGGCAUGGAA [Mat - Exclusion 5 - Eli Mod - D2] (Eterna round: R97, puzzle: Exclusion 5)
- apparent KD of MS2 coat protein (input ligand: FMN 200 uM): 0.0172 µM
- apparent KD of MS2 coat protein (input ligand: none): 0.0357 µM

Sequence: ACAAGCUUUUUGUUUGUCUACAUGAGGAUCACCCAUGUGGGUGUCAGUCAUGCUGGCGUGUGGUGUCGUGGCAGCGC [Sensor V1 S1] (Eterna round: R97, puzzle: Sensor, turn-off variant 1)
- apparent KD of MS2 coat protein (input ligand: FMN 200 uM): 0.978 µM
- apparent KD of MS2 coat protein (input ligand: none): 1.61 µM

Sequence: GCCUGUGAAGGAUAUACAUGAGGAUCACCCAUGUGGCGGAUAUACCCGCCGAGACCGUGUAGAAGGUCAUAGUA [Xezauser] (puzzle: Exclusion 3)
- apparent KD of MS2 coat protein [1]: 0.0361 µM

Sequence: ACAUUUGUAGAGGAUAUCAAGCCCAGGCUCCGUUGAGAAGGUUACACAUGAGGAUCACCCAUGUCCUCCUUACC [Eternabot (L1) Solution 4] (Eterna round: R97, puzzle: Exclusion 6)
- apparent KD of MS2 coat protein (input ligand: FMN 200 uM): 0.168 µM
- apparent KD of MS2 coat protein (input ligand: none): 0.162 µM

Sequence: AUGAGGUGAGGAUAUACGAGAUGAUAUUGCAGAGCAAGUCAGUAGAAGGCACAUGAGGAUCACCCAUGUUCGGG [Eternabot (L2) Solution 93] (Eterna round: R97, puzzle: Exclusion 4)
- apparent KD of MS2 coat protein (input ligand: FMN 200 uM): 0.269 µM
- apparent KD of MS2 coat protein (input ligand: none): 0.397 µM

Sequence: CGUAGCAAAGUGAGGAUAUCUAGAGCGAUAGCUCUAGAGAAGGCACAUGAGGAUCACCCAUGUGGUCAGCUACG [BmEx4/8-A4] (Eterna round: R97, puzzle: Brourd's mod of Exclusion 4)
- apparent KD of MS2 coat protein (input ligand: FMN 200 uM): 0.393 µM
- apparent KD of MS2 coat protein (input ligand: none): 0.0824 µM

Sequence: UGAGAACUGCGAGGAUAUACAUGAGGAUCACCCAUGUAAUAGUGUGAGGCUUUGCCUCACACAAUGUAGAAGGCGCAGUUCUCU [Mat - Exclusion NG 2 - Mod of JL - D7] (Eterna round: R96, puzzle: Exclusion NG 2)
- apparent KD of MS2 coat protein (input ligand: FMN 200 uM): 0.0184 µM
- apparent KD of MS2 coat protein [2]: 0.0101 µM
- apparent KD of MS2 coat protein (input ligand: none): 0.0119 µM

Sequence: CUAUCAAGCAAGGAUAUGCAAAUAAUUAUUUAUGCAGAAGGUGCAACAUGAGGAUCACCCAUGUUUCUGGGUUU [JR_E6_Sub048] (puzzle: Exclusion 6)
- apparent KD of MS2 coat protein [1]: 0.0449 µM

Sequence: GACCUCCCUGUAAGGAUAUCCAUGCAUCAAAGCAAGGAGAAGGUACAUGAGGAUCACCCAUGUCACCCGCGUUA (Eterna round: R97, puzzle: Brourd's mod of Exclusion 4)
- apparent KD of MS2 coat protein (input ligand: FMN 200 uM): 0.0231 µM
- apparent KD of MS2 coat protein (input ligand: none): 0.0154 µM

Sequence: CCAAGCUUAUUCAUUAACAACAUGAGGAUCACCCAUGUAUAGGCAAUUAUGACUGGGCUCUUUAGUGCUCGUCUUAU [Sensor-V1 #25] (Eterna round: R97, puzzle: Sensor, turn-off variant 1)
- apparent KD of MS2 coat protein (input ligand: FMN 200 uM): 0.0162 µM
- apparent KD of MS2 coat protein (input ligand: none): 0.0147 µM

Sequence: UAUUUUAAAGUAAGGAUAUCGGUCCGAAAGGACUACGAGAAGGUACAUGAGGAUCACCCAUGUGAAAUAAGAAU [Mod of Zala 23 - Jieux - Brourd's Mod of Exclusion 4] (Eterna round: R97, puzzle: Brourd's mod of Exclusion 4)
- apparent KD of MS2 coat protein (input ligand: FMN 200 uM): 0.0208 µM
- apparent KD of MS2 coat protein (input ligand: none): 0.015 µM
